Experimental findings from the RNAGym collection of RNA variant scans (doi:10.1101/gr.219683.116) are described below.

Sequences and labels used below:
B1: mRNA-splicing (parent)
chain: AGUUGCUGCUGGGAGCUCCAGCACAGUGAAAUGGACAGAAGGGCAGAGCAA

The variants in the data set derive from B1. Briefly: exon inclusion enrichment index; higher = more inclusion; WT1 exon 5 minigene, HEK293.
In the case of AGUUAUAUAUGGGAGCUCCAGCACAGUCUAAUGGACAGAAGGGCAGAGCAA, the “exon inclusion enrichment index” value turned out to be 0.0282.
For AGUUAGGGAUGGGCACUCCAGCACAGUGAAAUGGACAGAAGGGCAGAGCAA, the “exon inclusion enrichment index” value was 0.000979.
Consider AGUUGACGACGGGAGCUCCAGCACAGUGAAAUUAACAGAAGGGCAGAGCAA, for which the “exon inclusion enrichment index” value came out at 0.907.
Regarding AGUUUCUUUUGGGAGCUCCAGCACAGUGAAAUGGACAGAAGGGCAGCCCAA, the “exon inclusion enrichment index” value was found to be 0.139.
AUGUCGCGCCGGGAGCUCCAGCACAGUGAAAUGGACAGAAGGGCAGAGCAA: the “exon inclusion enrichment index” value was 5.1.
With AGUUGAAGAAGGGAGCUCCAGCACAGUGAAAUGGACAGAAGCCCAGAGCAA, the “exon inclusion enrichment index” value was 1.88.
AGUUAGGGAUGGGAGCUCCAGCAAAGUGAAAUGGACAGAAGGGCAGAGCAA: the “exon inclusion enrichment index” value is 0.00195.
With AGUUCGCGCCGGGAGCUCCCUCACAGUGAAAUGGACAGAAGGGCAGAGCAA, the “exon inclusion enrichment index” value is 2.17.
Consider AGUUCACACAGGGAGCUCCAGCACAGUGAGUUGGACAGAAGGGCAGAGCAA, for which the “exon inclusion enrichment index” value is 0.018.
Regarding AGUUGAAGAAGGGAGCUCCAGCACAGUGAAAUGGACAGAAGAUCAGAGCAA, the “exon inclusion enrichment index” value is 2.73.
Take AGUUCUUCUCGGGAGCUCCAGCACCAUGAAAUGGACAGAAGGGCAGAGCAA: the “exon inclusion enrichment index” value is 3.25.
For AGUUAGGGAUGGGAGCUCGUGCACAGUGAAAUGGACAGAAGGGCAGAGCAA the value was 0.00167.
Take AGUUCGCGCCGGGAGCUCGGGCACAGUGAAAUGGACAGAAGGGCAGAGCAA: the “exon inclusion enrichment index” value is 2.13.
Turning to AGGCCUUCUCGGGAGCUCCAGCACAGUGAAAUGGACAGAAGGGCAGAGCAA, the “exon inclusion enrichment index” value was 1.03.
Take AGUUCACACAGGGAGCUCCAGCACAGUGAAAUCCACAGAAGGGCAGAGCAA: the “exon inclusion enrichment index” value worked out at 0.0275.
For the variant AGUUAUAUAUGGGAGCUCCAGCACAGUGAAAUAGACAGAAGGGCAGAGCAA, the “exon inclusion enrichment index” value amounted to 0.00613.
Take AGUUUCUUUUGGGAGCUCCAGCACAGUGAAAUGCACAGAAGGGCAGAGCAA: the “exon inclusion enrichment index” value came out at 0.0201.
Consider AGUUACCACCGGGAGCUCCAGCACAGUGAAAUGGACAGAAGGUCAGAGCAA, for which the “exon inclusion enrichment index” value amounted to 1.89.
For the variant AGUUAGGGAUGGGAGCUCCAAUACAGUGAAAUGGACAGAAGGGCAGAGCAA, the “exon inclusion enrichment index” value is 0.00087.
With AGUUCACACAACGAGCUCCAGCACAGUGAAAUGGACAGAAGGGCAGAGCAA, the “exon inclusion enrichment index” value was 0.495.
As for AGUUGACGACGGGAGCUCCGUCACAGUGAAAUGGACAGAAGGGCAGAGCAA, the figure is 1.35.
Consider AGUUGACGACGGGAGCUCCAGCACAGUGAAAUGGACAGAAAGGCAGAGCAA, for which the “exon inclusion enrichment index” value came to 2.41.
Regarding AGUUUCUUUUGGGAGCUCCAGCAAGGUGAAAUGGACAGAAGGGCAGAGCAA, the “exon inclusion enrichment index” value was 0.175.
Regarding AGUUUCAAUUGGGAGCUCCAGCACAGUGAAAUGGACAGAAGGGCAGAGCAA, the “exon inclusion enrichment index” value was 0.454.
AGUUAGGGAUGGGAGCCCCAGCACAGUGAAAUGGACAGAAGGGCAGAGCAA: the “exon inclusion enrichment index” value was determined as 0.00172.
As for AGUUGACGACGGGAGCGCCAGCACAGUGAAAUGGACAGAAGGGCAGAGCAA, the figure is 2.68.
Consider AGUAUCCACCGGGAGCUCCAGCACAGUGAAAUGGACAGAAGGGCAGAGCAA, for which the “exon inclusion enrichment index” value was 2.36.
Regarding AGUUGAAGAAGGGAGCUCCAGCACAGUGAAAUGGGCAGAAGGGCAGAGCAA, the “exon inclusion enrichment index” value was 0.217.
With AUAUCUUCUCGGGAGCUCCAGCACAGUGAAAUGGACAGAAGGGCAGAGCAA, the “exon inclusion enrichment index” value was 3.36.
For AGUUAGGGAUGGGAGCUCCAGUUCAGUGAAAUGGACAGAAGGGCAGAGCAA the value was 0.00262.
With AGUUCGCGCCGGGAGCUCCAGCACAGUGAAAUGGACAGAAGGGCGGAGCAA, the “exon inclusion enrichment index” value stood at 5.32.
As for AGUUGACGACGGGAGCUCCAGCACAGUGAAAUGGACUAAAGGGCAGAGCAA, the “exon inclusion enrichment index” value is 1.46.
For AGUUCGCGCCGGGAGCUCCACUACAGUGAAAUGGACAGAAGGGCAGAGCAA the value was 3.43; for AGUUGAAGAAGGGAGCUCCAGCACAGUGAAAUGGACGCAAGGGCAGAGCAA, 0.984.
For AGUUACCACCGGGAGCUCCUACACAGUGAAAUGGACAGAAGGGCAGAGCAA the value was 1.36.
In the case of AGUUUCUUUUGGGAGCUCCAGCACAGUGAAAUGGACAGAAGGGCCAAGCAA, the “exon inclusion enrichment index” value is 0.056.
As for AGUUGACGACGGGAGCUCCAGCCUAGUGAAAUGGACAGAAGGGCAGAGCAA, the figure is 2.26.
On to AGUUCUUCUCGGGAGUCCCAGCACAGUGAAAUGGACAGAAGGGCAGAGCAA, for which the “exon inclusion enrichment index” value was found to be 1.08.
Turning to AGUUGAAGAAGGGAGCUCCAGCACAGUGCGAUGGACAGAAGGGCAGAGCAA, the “exon inclusion enrichment index” value was 1.51.
As for AGUUAUAUAUGGGAGCAGCAGCACAGUGAAAUGGACAGAAGGGCAGAGCAA, the figure is 0.0258.
Consider AGUUGAAGAAGGGAGCUCCAGCACAGUGAAAUGGACAGAAGGGGUGAGCAA, for which the “exon inclusion enrichment index” value is 0.598.
AGUUCACACAGGGAGCUCCAGCACAGUGAAAUUAACAGAAGGGCAGAGCAA: the “exon inclusion enrichment index” value was 0.0098.
For AGUUCUUCUCGGGAGCUCCAGCACAGUGAAAUGGUGAGAAGGGCAGAGCAA the value was 0.181; for AGUUCUUCUCGGGAGCUCCAGCACAGUGAAAUGGUUAGAAGGGCAGAGCAA, 0.0294; for AGUUCUUCUCGGGAGCUCCUACACAGUGAAAUGGACAGAAGGGCAGAGCAA, 0.91.
AGUUCUUCUCGGGAGCUCCAGCACAGUGAAAUUAACAGAAGGGCAGAGCAA: the “exon inclusion enrichment index” value was found to be 0.262.
As for AGUUCGCGCCGGGAGCUCCAGCACAGUGAAAUGGACAGAAGGGCAUGGCAA, the figure is 2.91; as for AGUUCUUCUCGGGAGCGUCAGCACAGUGAAAUGGACAGAAGGGCAGAGCAA, 1.64; as for AGUUCGCGCCGGAAGCUCCAGCACAGUGAAAUGGACAGAAGGGCAGAGCAA, 3.34.
As to AGUUCACACAGGGAGCUCCAGCACAGUGAAGUGGACAGAAGGGCAGAGCAA, the “exon inclusion enrichment index” value is 0.141.
As for AGUUAUAUAUGUAAGCUCCAGCACAGUGAAAUGGACAGAAGGGCAGAGCAA, the figure is 0.00185.
